Measured values from the nanobody polyreactivity screen of Harvey et al. (2022).

Assay: yeast display, Sf9 membrane polyspecificity reagent, FACS + sequencing; frameworks hold sequencing errors
Procedure, shortened: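 Galactose induction of a Saccharomyces cerevisiae BJ5465 synthetic nanobody display library ran 36–48 hours. The cells were then stained for 1 hour at 4 °C with 10% biotinylated, detergent-solubilized Sf9 membrane reagent, pulled down on streptavidin microbeads and FACS-sorted into low and high (top ~1%) gates on expression and reagent-binding fluorescence. Labels for polyreactivity follow the gate of origin.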

| Sequence | polyreactivity (PSR sort gate) |
| --- | --- |
| QDQLVESGGGLVQAGGSLRLSCAASGSIFSYYAMGWYRQAPGKERELVAAIRRGGSTYYADSVKGRFTISRDNEKNSVYLQMNSLKPEDNAVYYCAASLGWRFYYWGQGTQVTVSS | high polyreactivity |
| QVQLVESGGGLVQAGGSLRLSCAASGFTFRFYAMGWYRQAPGKERELVATISSRGGRTYYADSVKGRFTISRDNAKNTVYLQMNSLKPEDTAVYYCNKDLYRYPGYDYWGQGTQVTVSS | high polyreactivity |
| QVQLVESGGRLVQAGGSLRLSCAASGYTFPYANGWYRQAPGKERELVAGITSSGGSTYYADSVKGRFTISRDNAKNTVYLQMNSVKPEDTAVYYCNADVFVWLYPHYLIFDYWGQGTQVTVSS | low polyreactivity |
| QDQLVESGGGLVQAGGSLRLSCAASGSTFSYNMGWYRQAPGKERELVAAISGSGGSTYADSVKGRFTISRDNAKNTVYLQMNSLKPEDTAVYYCATVRYWVHEYGYWGQGTQVTVSS | high polyreactivity |
| QVQLVESGGGLVQAGGSLRLSCAASGFIFGRNAMGWYRQAPGKERELVAVISKRSGNTYYADSVKGRFTISRDNAKNTVYLQMNSLKPEDTAVYYCNAVDQKLLRYDYWGQGTQVTVSS | high polyreactivity |
| QVQLVESGGGLVQAGGSLRLSCAASGRIFRYYAMGWYRQAPGKERELVAAIRGGGSTYYADSVKGRFTISRDNAKNTVYLQMNSLKPEDTAVYYCAAPLIISTLWYKRYDYWGQGTQVTVSS | high polyreactivity |
| QVQLVESGGGLVQAGGSLRLSCAASGIPFYVKDMGWYRQAPGKDWDCVAAISYRGGSTYYADSVKGRFTISRDNAKNTVYLQMNSLKPEDTAVYYCAADYNYWSPHRDDYWGQGTQVTVSS | low polyreactivity |
| QVQLVESGGGFVQAGGSLRLSCAASGSILRSYAMGWYRQAPGKERELVAVINGSGGRTYYADSVKGRFTISRDNAKNTVYLQMNSLKPEDTAVYYCNADPGGRYPRRGYAHEGDYWGQGTQVTVSS | low polyreactivity |
| QVQLVESGGGLVQAGGSLSLICADSGSSFYGYAMGWYRQAPGKERELVAAITSSGGSTYYADSVKGRFTISRDNAKNTVYLQMNSLKPEDTAVYYCAARGSLGGWGLRYYWGQGTQVTVSS | high polyreactivity |
| QVQLVESGGGLVHAGGSLRLSCAASGGIYWYYAMGWYRQAPGKERELVAAISITDGSTYYADSVKGRFTISRDKAKNTVYLQMNSLKPEDTAVYYCAAEEEEYIYDYWGQGTQVTVSS | high polyreactivity |
| QVQLVESGGGLVQAGGSLRLSCAASGITFSHNAMGWYRQAPGKERELVAVIRWSGGRTYYADSVKGRFTISRDNAKNTVYLQMNSLKPEDTAVYYCAARPSTAFPYGKIMDYWGQGTQVTVSS | low polyreactivity |
| QVQLVESGGGLVQAGGSLRLSCAASGSIFYWNTMGWYRQAPGKERELVAAISYSGGSTYYADSVKGRFTISRDNAKNTVYLQMNSLKPEDTAVYYCAAKYYNRFYYWGQGTQVTVSS | high polyreactivity |
| QVQLVESGGGLVQAGGSLRLSCAASGRTFVSYTMGWYRQAPGKERELVAAISSGGSTTYADSVKGRFTISRDNAKNTVYLQMNSLKPEDTAVYYCNARYGWSYWSKYDYWGQGTQVTVSS | high polyreactivity |
| QVQLLESGGGLVQAGGSLRLSCAASGRIFSAYAMGWSRQAPGTERELVAAISWSGGSTYYADSVKGRFTISRDNAKNTVYLQMNSLKPEDTAVYYCAADYFYTSWYQHDYWGQGTQVTVSS | low polyreactivity |
| QVQLVESGGGLVQAGGSPRLSCADSGGIFGIYAMGWYRPAPGKERELVAAIRRGGSTSYADSVKGRFTISRDNAMNTVYLQMNSLKPEDTAVYYCAAGSYYRYGYWGQGTQVTVSS | high polyreactivity |
| QVQLVESGGGLVQAGGSLRLSCAASGFTFDPYAIGWYRQAPGKERELVAAISISGGRTYYADSVKGRITISRDNAKNTVYVQMISLKPEDSAVYYCAVAQSHYFGGYGYWGQGTKVTVSS | low polyreactivity |
| QVQLVESGGGLVQAGGSLRLSCAASGLTFSYYAMGWYRQAPGKERELVAVISYSGSSTYYADSVKGRFTISRDNAKNTVYLQMNSLKPEDTAVYYCAAYLYPRGKGAYDFYYWGQGTQVTVSA | high polyreactivity |
| QVQLVESGGGLVQAGGSLRLICAASGYTFTGYAMGWYRQAPGKEREFVAGITWRTGRTYYADSVNGRFTISRDNAKNTVYLQMNSLKPEDTAVYYCAAVPWKRYDYYTPFARGYWGQGTQVTVSS | low polyreactivity |
| QVQLVESGGGLVQAGGSLRLSCAASGFIFVYYAMGWYRQAPGKERELVAAITWRGGSTNYADSVKGRFTISRDNAKNTVYLQMNSLIPEDTAVYYCAAYSVWGGSYLALDYWGQGSQVTVSS | low polyreactivity |
| QVQLVESGGGLVQAGGSLRLSCAASGSTLSNNAMGWYRQAPGKERELVAAINDSAGSTYYADSVKGRFTISRDNAKNTVYLQMNSLKPEDTAVYYCAAKNYGRSFYYGYDYWEQGTQVTVSS | low polyreactivity |
| QVQLVESWGGLVQAGGSLRLSCAASGFIMQWYAMGWDRQAPGKERELVAGISSGTSTYYADSVKGRFTISRDNAKNTVYFQMNSLKAEDTAVYYCTWFVFDPEDYWGQGTQVTVSS | low polyreactivity |
| QVQLVESGGGLVQAGGSLRLSCAASGSTFTGNAMGWYRQAPGKERELVADISSGASTNYADSVKGRFTISRDNAKNTVYLQMNSLKPEDTAVFYCAADSWDYDSRMDYWGQGTQVTVSS | low polyreactivity |
